Data as given in patent EP2149585A1.
Where two headings read alike, the source gives them in different places. Blank lines part the entries; values can stand above or below the substance they belong to.

Key:
Experiment in all cases: cell-based or functional assay
[1] = biological target: human CD40 on B cells in PBMC from normal human subjects (human) (UniProt P25942)
[2] = biological target: human CD40 on B cells within PBMC from normal human subjects (human) (UniProt P25942)
[3] = biological target: human CD40 on normal human B cells / PBMC (human) (UniProt P25942)
[4] = biological target: human CD40 on normal human B cells / PBMC (human) (UniProt P25942); remark: listed apart in the source
[5] = biological target: human CD40 on the cell surface (human) (UniProt P25942)
[6] = biological target: CD20 on the cell surface (human) (UniProt P11836)
Chain of CD20 on the cell surface (human) (P11836 whole entry): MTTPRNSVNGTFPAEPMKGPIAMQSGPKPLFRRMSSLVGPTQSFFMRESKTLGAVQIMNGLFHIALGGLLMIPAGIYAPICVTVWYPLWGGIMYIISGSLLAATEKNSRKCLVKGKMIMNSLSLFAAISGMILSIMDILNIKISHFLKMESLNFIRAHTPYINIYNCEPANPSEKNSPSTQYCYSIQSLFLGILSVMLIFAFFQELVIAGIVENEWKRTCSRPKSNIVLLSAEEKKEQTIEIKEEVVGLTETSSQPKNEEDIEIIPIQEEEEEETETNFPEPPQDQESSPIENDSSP

Chain of human CD40 on normal human B cells / PBMC (human) (P25942 20-277): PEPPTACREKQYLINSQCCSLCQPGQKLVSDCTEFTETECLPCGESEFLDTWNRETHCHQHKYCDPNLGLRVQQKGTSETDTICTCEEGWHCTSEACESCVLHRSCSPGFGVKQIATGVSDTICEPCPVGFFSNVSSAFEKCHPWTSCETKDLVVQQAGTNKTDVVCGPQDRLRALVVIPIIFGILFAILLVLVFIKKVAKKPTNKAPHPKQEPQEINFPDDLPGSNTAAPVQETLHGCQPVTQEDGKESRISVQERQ
Chain of human CD40 on B cells within PBMC from normal human subjects (human) (P25942 20-277): as above
Chain of human CD40 on B cells in PBMC from normal human subjects (human) (P25942 20-277): as above
Chain of human CD40 on the cell surface (human) (P25942 20-277): as above

Average SI of PBMC, index(1), PBMC+CHO-CD40L [1]: 5.09
CPM, PBMC+CHO-CD40L (PBMC-010) [1]: 5280 CPM
CPM, PBMC+CHO-CD40L (PBMC-011 Donor#1) [1]: 8250 CPM
CPM, PBMC+CHO-CD40L (PBMC-011 Donor#2) [1]: 11600 CPM
CPM, PBMC+CHO-CD40L (PBMC-011 Donor#3) [1]: 7960 CPM
CPM, PBMC+CHO-CD40L (PBMC-011 Donor#4) [1]: 14300 CPM
CPM, PBMC+CHO-CD40L (PBMC-014) [1]: 8790 CPM
CPM, PBMC+CHO-CD40L (PBMC-015 Donor#1) [1]: 12900 CPM
CPM, PBMC+CHO-CD40L (PBMC-015 Donor#2) [1]: 19100 CPM
CPM, PBMC+CHO-CD40L (PBMC-015 Donor#3) [1]: 19800 CPM
CPM, PBMC+CHO-CD40L (PBMC-016) [1]: 15800 CPM
index(1), PBMC+CHO-CD40L (PBMC-010) [1]: 3.73
index(1), PBMC+CHO-CD40L (PBMC-011 Donor#1) [1]: 3.86
index(1), PBMC+CHO-CD40L (PBMC-011 Donor#2) [1]: 4.87
index(1), PBMC+CHO-CD40L (PBMC-011 Donor#3) [1]: 2.46
index(1), PBMC+CHO-CD40L (PBMC-011 Donor#4) [1]: 3.41
index(1), PBMC+CHO-CD40L (PBMC-014) [1]: 3.74
index(1), PBMC+CHO-CD40L (PBMC-015 Donor#1) [1]: 3.94
index(1), PBMC+CHO-CD40L (PBMC-015 Donor#2) [1]: 3.14
index(1), PBMC+CHO-CD40L (PBMC-015 Donor#3) [1]: 8
index(1), PBMC+CHO-CD40L (PBMC-016) [1]: 13.8
Average SI of PBMC, index(1) [2]: 11.9
Average Stimulation index, S.index (1) [2]: 22
PBMC proliferation CPM (PBMC+CHO-CD40L), Immoblize-004 [2]: 11700 CPM
PBMC proliferation CPM (PBMC+CHO-CD40L), PBMC-012 [2]: 6810 CPM
PBMC proliferation CPM (PBMC+CHO-CD40L), PBMC-025 Donor#1 [2]: 42300 CPM
PBMC proliferation CPM (PBMC+CHO-CD40L), PBMC-025 Donor#2 [2]: 15000 CPM
PBMC proliferation CPM (PBMC+CHO-CD40L), PBMC-026 Donor#1 [2]: 18300 CPM
PBMC proliferation CPM (PBMC+CHO-CD40L), PBMC-026 Donor#2 [2]: 18100 CPM
PBMC proliferation CPM (PBMC+CHO-CD40L), PBMC-027 Donor#1 [2]: 13000 CPM
PBMC proliferation CPM (PBMC+CHO-CD40L), PBMC-027 Donor#2 [2]: 11900 CPM
PBMC proliferation CPM (PBMC+CHO-CD40L), PBMC-028 Donor#1 [2]: 22500 CPM
PBMC proliferation CPM (PBMC+CHO-CD40L), PBMC-028 Donor#2 [2]: 54900 CPM
PBMC proliferation CPM (PBMC+CHO-CD40L), PBMC-029 Donor#1 [2]: 10100 CPM
PBMC proliferation CPM (PBMC+CHO-CD40L), PBMC-029 Donor#2 [2]: 23100 CPM
PBMC proliferation CPM (PBMC+CHO-CD40L), PBMC-030 Donor#1 [2]: 57200 CPM
PBMC proliferation CPM (PBMC+CHO-CD40L), PBMC-030 Donor#2 [2]: 53900 CPM
PBMC proliferation CPM (PBMC+CHO-CD40L), PBMC-032 Donor#1 [2]: 15300 CPM
PBMC proliferation S.index (1), Immoblize-004 [2]: 13.7
PBMC proliferation S.index (1), PBMC-012 [2]: 30.3
PBMC proliferation index(1), PBMC-025 Donor#1 [2]: 10.4
PBMC proliferation index(1), PBMC-025 Donor#2 [2]: 6.63
PBMC proliferation index(1), PBMC-026 Donor#1 [2]: 8.78
PBMC proliferation index(1), PBMC-026 Donor#2 [2]: 26.7
PBMC proliferation index(1), PBMC-027 Donor#1 [2]: 4.75
PBMC proliferation index(1), PBMC-027 Donor#2 [2]: 8.89
PBMC proliferation index(1), PBMC-028 Donor#1 [2]: 5.26
PBMC proliferation index(1), PBMC-028 Donor#2 [2]: 25.6
PBMC proliferation index(1), PBMC-029 Donor#1 [2]: 16.5
PBMC proliferation index(1), PBMC-029 Donor#2 [2]: 2.99
PBMC proliferation index(1), PBMC-030 Donor#1 [2]: 13.7
PBMC proliferation index(1), PBMC-030 Donor#2 [2]: 16.2
PBMC proliferation index(1), PBMC-032 Donor#1 [2]: 8.45
CPM, B cells + CHO-CD40L; B cell-004 donor 2 [3]: 27200 CPM
CPM, B cells+CHO-CD40L; B cell-004 donor 1 [3]: 3130 CPM
CPM, B cells+CHO-CD40L; B cell-005 donor 3 [3]: 24600 CPM
CPM, PBMC+CHO-CD40L (tritiated thymidine); PBMC-025 Donor#1 [3]: 42300 CPM
CPM, PBMC+CHO-CD40L (tritiated thymidine); PBMC-025 Donor#2 [3]: 15000 CPM
CPM, PBMC+CHO-CD40L (tritiated thymidine); PBMC-026 Donor#1 [3]: 19100 CPM
CPM, PBMC+CHO-CD40L (tritiated thymidine); PBMC-026 Donor#2 [3]: 17800 CPM
CPM, PBMC+CHO-CD40L (tritiated thymidine); PBMC-028 Donor#1 [3]: 22500 CPM
CPM, PBMC+CHO-CD40L (tritiated thymidine); PBMC-028 Donor#2 [3]: 54900 CPM
CPM, PBMC+CHO-CD40L (tritiated thymidine); PBMC-029 Donor#1 [3]: 10100 CPM
CPM, PBMC+CHO-CD40L (tritiated thymidine); PBMC-029 Donor#2 [3]: 23100 CPM
CPM, PBMC+CHO-CD40L (tritiated thymidine); PBMC-030 Donor#1 [3]: 53400 CPM
CPM, PBMC+CHO-CD40L (tritiated thymidine); PBMC-030 Donor#2 [3]: 53800 CPM
CPM, PBMC+CHO-CD40L (tritiated thymidine); PBMC-032 Donor#1 [3]: 14100 CPM
Average Stimulation Index (SI), B cells+CHO-CD40L [4]: 145
CPM, B cells+CHO-CD40L; B cell-004 donor 1 [4]: 3130 CPM
CPM, B cells+CHO-CD40L; B cell-005 donor 3 [4]: 24600 CPM
CPM, B cells+CHO-CD40L; donor 2 [4]: 27200 CPM
S. index(1) = CPM (B cells+CHO-CD40L)/CPM (B cells alone); B cell-004 donor 1 [4]: 7.49
S. index(1) = CPM (B cells+CHO-CD40L)/CPM (B cells alone); B cell-005 donor 3 [4]: 92
S. index(1) = CPM (B cells+CHO-CD40L)/CPM (B cells alone); donor 2 [4]: 336
Substance: CD40 ligand expressed on formaldehyde-fixed CHO cells (from UniProt P29965 1-261)

average stimulation index (SI) of PBMC proliferation [5]: 7.41
Substance: CD40 ligand on formaldehyde-fixed CHO cells (from UniProt P29965 1-261)

% lysis - % lysis IgG1; ADCC-006, huNK E:T 2, 0.01 ug/ml [6]: 33%
% lysis - % lysis IgG1; ADCC-006, huNK E:T 2, 0.1 ug/ml [6]: 44.6%
% lysis - % lysis IgG1; ADCC-006, huNK E:T 2, 1 ug/ml [6]: 45.7%
% lysis - % lysis IgG1; ADCC-006, huNK E:T 2, 10 ug/ml [6]: 37.9%
% lysis - % lysis IgG1; ADCC-009 Calcein AM, huNK E:T 10, 0.04 ug/ml [6]: 81.5%
% lysis - % lysis IgG1; ADCC-009 Calcein AM, huNK E:T 10, 0.2 ug/ml [6]: 90.2%
% lysis - % lysis IgG1; ADCC-009 Calcein AM, huNK E:T 10, 1 ug/ml [6]: 87.7%
% lysis - % lysis IgG1; ADCC-009 Calcein AM, huNK E:T 10, 5 ug/ml [6]: 83.9%
% lysis - % lysis IgG1; ADCC-011 Calcein AM, huNK E:T 8, 0.0004 ug/ml [6]: -1.04%
% lysis - % lysis IgG1; ADCC-011 Calcein AM, huNK E:T 8, 0.002 ug/ml [6]: 4.16%
% lysis - % lysis IgG1; ADCC-011 Calcein AM, huNK E:T 8, 0.01 ug/ml [6]: 10.1%
% lysis - % lysis IgG1; ADCC-011 Calcein AM, huNK E:T 8, 1 ug/ml [6]: 19.3%
% lysis - % lysis IgG1; ADCC-012 Calcein AM, huNK E:T 10, 0.001 ug/ml [6]: 21.1%
% lysis - % lysis IgG1; ADCC-012 Calcein AM, huNK E:T 10, 0.005 ug/ml [6]: 25.7%
% lysis - % lysis IgG1; ADCC-012 Calcein AM, huNK E:T 10, 0.01 ug/ml [6]: 37.9%
% lysis - % lysis IgG1; ADCC-012 Calcein AM, huNK E:T 10, 1 ug/ml [6]: 52.5%
% lysis - % lysis IgG1; ADCC-012 Calcein AM, huNK E:T 10, 10 ug/ml [6]: 37.4%
% lysis - % lysis IgG1; ADCC-013 51Cr, PBMC E:T 100, 0.001 ug/ml [6]: 0.35%
% lysis - % lysis IgG1; ADCC-013 51Cr, PBMC E:T 100, 0.01 ug/ml [6]: 9.87%
% lysis - % lysis IgG1; ADCC-013 51Cr, PBMC E:T 100, 0.1 ug/ml [6]: 24.7%
% lysis - % lysis IgG1; ADCC-013 51Cr, PBMC E:T 100, 1 ug/ml [6]: 29.7%
% lysis; ADCC-006, huNK E:T 2, 0.01 ug/ml [6]: 28.5%
% lysis; ADCC-006, huNK E:T 2, 0.1 ug/ml [6]: 33.6%
% lysis; ADCC-006, huNK E:T 2, 1 ug/ml [6]: 37.1%
% lysis; ADCC-006, huNK E:T 2, 10 ug/ml [6]: 34.8%
% lysis; ADCC-009 Calcein AM, huNK E:T 10, 0.04 ug/ml [6]: 84.9%
% lysis; ADCC-009 Calcein AM, huNK E:T 10, 0.2 ug/ml [6]: 88.8%
% lysis; ADCC-009 Calcein AM, huNK E:T 10, 1 ug/ml [6]: 88.2%
% lysis; ADCC-011 Calcein AM, huNK E:T 8, 0.0004 ug/ml [6]: 5.99%
% lysis; ADCC-011 Calcein AM, huNK E:T 8, 0.002 ug/ml [6]: 9.58%
% lysis; ADCC-011 Calcein AM, huNK E:T 8, 0.01 ug/ml [6]: 14.7%
% lysis; ADCC-011 Calcein AM, huNK E:T 8, 1 ug/ml [6]: 22.4%
% lysis; ADCC-012 Calcein AM, huNK E:T 10, 0.001 ug/ml [6]: 33.1%
% lysis; ADCC-012 Calcein AM, huNK E:T 10, 0.005 ug/ml [6]: 39.3%
% lysis; ADCC-012 Calcein AM, huNK E:T 10, 0.01 ug/ml [6]: 50.2%
% lysis; ADCC-012 Calcein AM, huNK E:T 10, 1 ug/ml [6]: 66%
% lysis; ADCC-012 Calcein AM, huNK E:T 10, 10 ug/ml [6]: 50.8%
% lysis; ADCC-013 51Cr, PBMC E:T 100, 0.001 ug/ml [6]: 3.13%
% lysis; ADCC-013 51Cr, PBMC E:T 100, 0.01 ug/ml [6]: 12.8%
% lysis; ADCC-013 51Cr, PBMC E:T 100, 0.1 ug/ml [6]: 27.2%
% lysis; ADCC-013 51Cr, PBMC E:T 100, 1 ug/ml [6]: 32.3%
Average % lysis at 1 ug/ml concentration of mAbs (% lysis - % lysis IgG1) [6]: 47.2%
Substance: rituximab (antibody)
